The record followed here is patent US20050287542, “Protein binding miniature proteins” (published 2005).

The target of data set [1] is T1, G56 (GCN4 bZIP element) (UniProt P03069 P03069:226-281). Description: EMSA; ddG -2.6 kcal/mol. The conditions noted are these: chain copies: 2 inferred; label: 32P.
Data set [2] concerns the target T1, G56 (GCN4 bZIP element). The experiment in a line: EMSA. The following applies: chain copies: 2 inferred; label: 32P.

T1 sequence (P03069 226-281, one chain of several): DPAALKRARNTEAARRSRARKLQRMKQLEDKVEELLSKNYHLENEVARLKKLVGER

B1: CEBP24 (C/EBP24) (dsDNA)
DNA 1: AGTGGAGATTGCGCAATCTCGTGC
DNA 2: GCACGAGATTGCGCAATCTCCACT
As to B1, the binding signal in data set [1] is 118 fold specificity ratio for CRE24 over CEBP24.

B2: CRE24 (dsDNA)
DNA 1: AGTGGAGATGACGTCATCTCGTGC
DNA 2: GCACGAGATGACGTCATCTCCACT
Consider B2, for which the binding signal in data set [2] is 118 fold preference over CEBP24.
